Experiment [1] addresses human membrane attack complex (C5b-9) formed from normal human serum on mouse cells (human) (UniProt P01031). The experiment in a line: cell-based or functional assay.
Experiment [2] concerns the target human membrane attack complex (C5b-9) formed from normal human serum on mouse cells (human, UniProt P01031 752-1676; P13671 22-934; P10643 23-843; P07357 31-584; P07358 55-591; …). The experiment in a line: cell-based or functional assay.

B1: human CD59, GPI-anchored membrane form expressed from the AdCAGCD59 vector (protein, UniProt P13987 26-102, looked up)
chain: LQCYNCPNPTADCKTAVNCSSDFDACLITKAGLQVYNKCWKFEHCNFNDVTTRLRENELTYYCCKKDLCNFNEQLEN
modifications: glycosyl phosphatidyl inositol (GPI) anchor at asparagine 77 of the mature protein; N-glycosylated
In experiment [1], B1 gave a complement mediated cell lysis (PI uptake, FACS; hepa-1c1c7 cells, 1000 vp/cell AdCAGCD59, 1% NHS) of 12.3%; a fold reduction of complement mediated cell lysis (PI uptake, FACS; hepa-1c1c7 cells, 1000 vp/cell AdCAGCD59, 1% NHS) of 8 fold; an inhibition of cell lysis at 250 vp/cell AdCAGCD59 (hepa-1c1c7 cells, NHS) above 50%; an inhibition of cell lysis at 500 vp/cell AdCAGCD59 (hepa-1c1c7 cells, NHS) above 70%. In experiment [1], this molecule displayed a reduction in MAC immunofluorescence intensity on mouse corneal endothelium (ex vivo, 50% NHS, 20 minutes) of 86%; a reduction in MAC immunofluorescence on mouse eyecups, 7.5 minutes NHS of 68%; a reduction in MAC immunofluorescence on mouse eyecups, 15 minutes NHS of 56%; a reduction in mean MAC immunofluorescence intensity on mouse eyecup RPE at the area of GFP expression of 55%.

B2: membrane-independent (soluble) human CD59 lacking the C-terminal 26 amino acids, expressed from AdCAGsCD59 or AAVCAGsCD59 (other)
chain: LQCYNCPNPTADCKTAVNCSSDFDACLITKAGLQVYNKCWKFEHCNFNDVTTRLRENELTYYCCKKDLCNFNEQLEN
modifications: N-glycosylated forms (14-18 kDa)
Consider B2, for which the “protection against cell lysis relative to AdCAGGFP-conditioned media with NHS (Hepa-1c1c7 cells)” value in experiment [2] came out at 34.1%.

The values above are taken from patent US20130143953A1 (TRUSTEES OF TUFTS COLLEGE, published 2013).
